Results published in patent US7670806B2, “ADP-ribosyl acceptor hydrolase 3 (ARH3) polypeptides and methods of use” (The United States of America as represented by the …, priority 2005, dated 2010).
“And” between values parts separate entries of the source, which are not always exact repeats. Identical values can stand only once.

How the values were obtained:
[1] = Hydrolysis of O-acetyl-[14C]ADP-ribose by ARH proteins / PARG (RP-HPLC); format: biochemical
Description: FIG. 13A is a graph illustrating the results from incubation of 1.5 pmol of mouse ARH3 with or without 5 mM DTT and/or 10 mM MgCl2 as described in FIG. 11B with incubation for 1 h at 30° C. FIG. 13B is a graph illustrating the results from incubation of 1.5 pmol of wild type or mutant human (D77-78) ARH3 or 20 mU of PARG for 2 h at 30° C. *D77,78, assays incubated with 15 pmol of mutant human ARH3 (D77, D78).
FIG. 14A is a graph of the results from incubation with the indicated amount of mouse ARH1, 2, or 3 for 2 h at 30° C. FIG. 14B is a graph of the results from incubation with 230 pmol of mouse ARH1 at 30° C. for the indicated time.
Mouse ARH3 (2 pmol) and 2.5 μM O-acetyl-[^14C]ADP-ribose (5,000 cpm) in 200 μl of buffer containing 50 mM potassium phosphate (pH 7.0), 10 mM MgCl2 and 5 mM DTT were incubated for 2 h at 30° C., before separation of substrate and products using RP-HPLC as described below.
Hydrolysis of O-acetyl-[^14C]ADP-ribose catalyzed by ARH3. Assays containing the indicated concentration of O-acetyl-[^14C]-ADP-ribose (0.1 to 2 nmol, 1,000 to 20,000 cpm) and 1.5 pmol of ARH3 in 200 μl of buffer (50 mM KPO4 (pH 7.0), 10 mM MgCl2, 5 mM DTT) were incubated at 30° C. for 20 min. Substrate and products were separated using RP-HPLC. Amounts of product were corrected for ADP-ribose produced in the absence of ARH3 before calculation of hydrolysis rates.
Because O-acetyl-ADP-ribose was known to be hydrolyzed at alkaline pH Tanny and Moazed (2001), Proc Natl Acad Sci USA. 98(2):415-20, Epub Dec. 26, 2000), it was generated at pH 7.0 in the presence of [^14C-adenine] β-NAD, Sir2, and acetylated histone H3 peptide (FIG. 11A), and the products of Sir2 and ARH3 were analyzed using reverse-phase HPLC at the same pH (FIGS. 11A,B). The products of the ARH3-catalyzed reaction were also analyzed by high resolution-polyacrylamide gel electrophoresis (FIG. 11C). O-acetyl-[^14C]ADP-ribose hydrolase activity was time and ARH3 dependent (FIG. 12) and essentially completely dependent on Mg^2+ (FIG. 13A).
O-acetyl-ADP-ribose hydrolysis by ARH1 was time and ARH1 dependent (FIG. 14b).

[2] = test system: NIH3T3 cells; experiment: Effect of H2O2 on ARH3-transfected NIH3T3 cells (Cell-Counting Kit-8); format: cell-based; conditions: stably ARH3 cDNA-transfected NIH3T3 cells vs empty vector; H2O2 for 24 hours
Description: FIG. 16 is a line graph showing the effect of H2O2 on ARH3-transfected NIH3T3 cells. NIH3T3 cells were transfected with ARH3 cDNA using Lipofectamin transfection reagent (INVITROGEN™). After transfection, the cells were cultured and exposed to 200 μg/ml of Hygromycin G (INVITROGEN™) for 3-4 weeks to select stably transfected clones. Positive clones derived from single Hygromycin G-resistant cells were then isolated by cloning rings and further grown under the same conditions. As controls, NIH3T3 cells were transfected with an empty pcDNA3.1 vector (INVITROGEN™) and subjected to the same selection and cloning procedures as described above. The cells were plated in 96-well plates at 1×10^4 cells/well, and incubated for 24 h at 37° C. in a humidified incubator. The cells were then challenged at the indicated concentrations of H2O2 for 24 hours. Cell survival was determined by using Cell-Counting Kit-8 (Dojindo). The experiments were repeated twice with similar results.
To test the role of ARH3 in the cellular response to oxidative stress, NIH3T3 cells were transfected with ARH3 cDNA using Lipofectamin transfection reagent (Invitrogen). […]
The cells were plated in 96-well plates at 1×10^4 cells/well, and incubated for 24 hours at 37° C. in a humidified incubator. […] Cell viability was determined by using Cell-Counting Kit-8 (Dojindo). […]

B1: ARH3: 39-kDa recombinant protein having both poly(ADP-ribose) glycohydrolase activity and O-acetyl-ADP-ribose hydrolase activity (protein, listed as Homo sapiens)
chain: MAAAAMAAAAGGGAGAARSLSRFRGCLAGALLGDCVGSFYEAHDTVDLTSVLRHVQSLEPDPGTPGSERTEALYYTDDTAMARALVQSLLAKEAFDEVDMAHRFAQEYKKDPDRGYGAGVVTVFKKLLNPKCRDVFEPARAQFNGKGSYGNGGAMRVAGISLAYSSVQDVQKFARLSAQLTHASSLGYNGAILQALAVHLALQGESSSEHFLKQLLGHMEDLEGDAQSVLDARELGMEERPYSSRLKKIGELLDQASVTREEVVSELGNGIAAFESVPTAIYCFLRCMEPDPEIPSAFNSLQRTLIYSISLGGDTDTIATMAGAIAGAYYGMDQVPESWQQSCEGYEETDILAQSLHRVFQKS
[1]; 1.5 pmol ARH3, 30° C., 20 min, pH 7.0, 10 mM MgCl2, 5 mM DTT
  Km: 7.4 ± 0.7 µM
[1]; 1.5 pmol ARH3, 30° C., 20 min, pH 7.0, 10 mM MgCl2, 5 mM DTT, means ±½ range of duplicates
  Vmax, O-acetyl-ADP-ribose hydrolysis: 173 ± 8.4 nmol/min/mg
[1]; comparison with mNudT5
  kcat, O-acetyl-ADP-ribose hydrolysis: 0.0052 ± 0.0033 s⁻¹
[1]; times / -fold the rate with ARH1, recombinant mouse proteins, 2 h at 30° C.
  Rate of O-acetyl-ADP-ribose hydrolysis relative to that of ARH1: 250 and > 250
[2]
  Cell viability after H2O2 challenge: significantly reduced the toxic effect of H2O2
